Patent US7893197B2, “Relaxin-3 chimeric polypeptides and their preparation and use” (Janssen Pharmaceutica N.V., priority 2005, dated 2011)

Molecular target: T1, LGR7 (Homo sapiens, UniProt Q9HBX9)
T1 construct: Human LGR7 cDNA containing the complete coding region was PCR amplified; expressed in transfected cells
T1 sequence (Q9HBX9 1-757): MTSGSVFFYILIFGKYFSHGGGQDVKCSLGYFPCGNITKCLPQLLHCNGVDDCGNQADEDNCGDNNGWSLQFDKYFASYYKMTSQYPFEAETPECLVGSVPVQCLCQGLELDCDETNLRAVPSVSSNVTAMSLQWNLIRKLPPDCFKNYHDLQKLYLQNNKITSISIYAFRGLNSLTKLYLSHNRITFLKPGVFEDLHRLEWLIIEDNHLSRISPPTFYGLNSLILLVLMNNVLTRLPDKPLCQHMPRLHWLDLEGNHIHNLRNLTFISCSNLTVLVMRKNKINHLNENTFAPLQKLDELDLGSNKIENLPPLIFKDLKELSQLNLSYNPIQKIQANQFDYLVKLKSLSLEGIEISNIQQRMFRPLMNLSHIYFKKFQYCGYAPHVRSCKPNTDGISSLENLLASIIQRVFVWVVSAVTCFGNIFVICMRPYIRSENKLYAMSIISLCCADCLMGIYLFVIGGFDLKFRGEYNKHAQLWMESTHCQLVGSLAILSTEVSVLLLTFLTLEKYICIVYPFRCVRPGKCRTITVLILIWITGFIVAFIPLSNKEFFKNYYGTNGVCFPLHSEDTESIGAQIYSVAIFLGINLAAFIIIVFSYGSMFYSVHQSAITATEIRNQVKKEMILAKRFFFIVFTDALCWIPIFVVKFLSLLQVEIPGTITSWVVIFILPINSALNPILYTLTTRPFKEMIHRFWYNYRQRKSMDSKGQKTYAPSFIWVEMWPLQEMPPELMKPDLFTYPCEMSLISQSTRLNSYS
Test: Stimulation of β-galactosidase expression in SK-N-MC/β-gal cells
Assay type: cell-based
Protocol: FIGS. 1A-1D show the activation of GPCR135 and GPCR142 by relaxin-3 B-chain, but not of LGR7 or LGR8. In FIG. 1A, SK-N-MC/β-gal cells expressing human GPCR135 were stimulated with relaxin-3, relaxin-3 B-chain, porcine relaxin, or INSL3 at various concentrations to inhibit the forskolin stimulated β-galactosidase expression. Forskolin was added to cells at a final concentration of 5 μM to stimulate the β-galactosidase expression. FIG. 1B depicts results for SK-N-MC/β-gal cells expressing human GPCR142 stimulated as in FIG. 1A. In FIG. 1C, SK-N-MC/β-gal cells expressing human LGR7 were stimulated with relaxin-3, relaxin-3 B-chain, porcine relaxin, and INSL3 at various concentrations to induce the β-galactosidase expression. The intracellular β-galactosidase activities were measured by a colorimetric assay using CRGP as the substrate and reading the absorbance at a wavelength of 570 nm. For FIG. 1D, SK-N-MC/β-gal cells expressing human LGR8 were stimulated as in FIG. 1C.
FIGS. 4A-4D illustrate the evaluation of the agonist activity of relaxin-3 chimeric polypeptides in biofunctional assays. Different chimeric polypeptides at various concentrations were added to SK-N-MC/β-gal cells expressing human GPCR135 (FIG. 4A) or GPCR142 (FIG. 4B) to inhibit forskolin stimulated β-galactosidase expression. Human relaxin-3 was used as the positive control. In parallel, chimeric polypeptides at various concentrations were added to SK-N-MC/β-gal cells expressing human LGR7 (FIG. 4C) and LGR8 (FIG. 4D) to stimulate β-galactosidase expression. Relaxin-3 and INSL3 were used as positive controls for LGR7 and LGR8, respectively. Intracellular β-galactosidase activity was measured by a colorimetric assay using CRGP as the substrate and reading the absorbance at wavelength of 570 nm. Data represent mean±SEM (n=3).
It has been shown that synthetic human relaxin-3 B-chain alone, but not A-chain, is an agonist for both GPCR135 and GPCR142 (Liu et al., 2003, Journal of Biological Chemistry, 278:50754-50764 and Liu et al., 2003, Journal of Biological Chemistry, 278:50765-50770). Those studies were repeated herein in SK-N-MC/β-gal cells, which harbor a β-galactosidase gene under the control of a cAMP responsive element (CRE) (Liu et al., 2001, Molecular Pharmacology, 59:420-426). In such SK-N-MC/β-gal cells, an increase in intracellular cAMP concentration leads to increased β-galactosidase gene expression, the activity of which is measured using Chlorophenol Red-β-D-Galactopyranoside (CPRG) as the substrate.
The inventive chimeric polypeptides were each independently tested for their ability to activate either GPCR135, GPCR142, LGR7, or LGR8, respectively, in separate pools of SK-N-MC/β-gal cells (see supra), each pool stably expressing one of the respective receptors, as indicated (FIG. 4).
Cells were seeded in 96-well tissue culture plate at a density of 30,000 cells/well in MEM plus 10% fetal serum, sodium pyruvate, penicillin, streptomycin, and G418 (400 mg/L). For cells expressing GPCR135 or GPCR142, forskolin was added to cells at a final concentration of 5 μM to stimulate intracellular cAMP accumulation. Different concentrations of each of the inventive polypeptides were then added to the cells to inhibit the forskolin induced cAMP accumulation. For cells expressing LGR7 or LGR8, intracellular cAMP was stimulated with each of the inventive chimeric polypeptides at various concentrations.
For all cells, after adding the chimeric polypeptides, cells were incubated for 6 additional hours in 37° C. incubator. The media was then aspirated and the β-galactosidase activities measured as previously described (Liu et al., 2001, Molecular Pharmacology, 59:420-426). The results were analyzed by Prism 3.0 software. […]

R3/I4: chimeric polypeptide: human relaxin-3 B-chain and INSL4 A-chain; mature polypeptide SEQ ID NO:22 (RAAPYGVRLCGREFIRAVIFTCGGSRWFDPFCCEVICDDGTSVKLC; Human Relaxin-3/Insulin-like 4 chimeric mature polypeptide)
activation of LGR7, in words: no activity
